Laboratory results reported in patent US20250090676A1 (SUTRO BIOPHARMA, published 2025).

B1: SRP1848-F04 (antibody, V domains shown)
VH: EVQLVESGGGLVQPGGSLRLSCAASGFNISNYSIHWVRQAPGKGLEWVGEIYPIDGITDYADSVKGRFTISADTSKNTAYLQMNSLRAEDTAVYYCARGSWFWRSGYGYYLDYWGQGTLVTVSS
VL: not shown
notes: HC variant paired with trastuzumab LC, cell-free expressed, HIS- and FLAG-tagged; also called Antibody 39
B2: SRP1848-A04 (antibody, V domains shown)
VH: EVQLVESGGGLVQPGGSLRLSCAASGFNIDQSSIHWVRQAPGKGLEWVGVIYPVDGTTDYADSVKGRFTISADTSKNTAYLQMNSLRAEDTAVYYCARGAWSWRSGYGYYIDYWGQGTLVTVSS
VL: not shown
notes: HC variant paired with trastuzumab LC, cell-free expressed, HIS- and FLAG-tagged; also called Antibody 3
B3: SRP1848-A07 (antibody, V domains shown)
VH: EVQLVESGGGLVQPGGSLRLSCAASGFNIGYHSIHWVRQAPGKGLEWVGEIFPVDGTTDYADSVKGRFTISADTSKNTAYLHMNSLRAEDTAVYYCARGFWAWRSGYGYYLDYWGQGTLVTVSS
VL: not shown
notes: HC variant paired with trastuzumab LC, cell-free expressed, HIS- and FLAG-tagged; also called Antibody 5
B4: SRP1848-A09 (antibody, V domains shown)
VH: EVQLVESGGGLVQPGGSLRLSCAASGFNIRKQSIHWVRQAPGKGLEWVGSIFPNDGTTDYADSVKGRFTISADTSKNTAYLQVNSLRAEDTAVYYCARGSWFWRSGYGYFLEYWGQGTLVTVSS
VL: not shown
notes: HC variant paired with trastuzumab LC, cell-free expressed, HIS- and FLAG-tagged; also called Antibody 7
B5: SRP1848-A08 (antibody, V domains shown)
VH: EVQLVESGGGLVQPGGSLRLSCAASGSNIRKHSIHWVRQAPGKGLEWVGSIYPNDGTTDYADSVKGRFTISADTSKNTAYLQMNSLRAEDTAVYYCARGSWFWRAGYGYYLDYWGQGTLVTVSS
VL: not shown
notes: HC variant paired with trastuzumab LC, cell-free expressed, HIS- and FLAG-tagged; also called Antibody 6
B6: SRP1848-A06 (antibody, V domains shown)
VH: EVQLVESGGGLVQPGGSLRLSCAASGFNIGNSYIHWVRQAPGKGLEWVGGITPIDGNTDYADSVKGRFTISADTSKNTAYLQMNSLRAEDTAVYYCARGAWSWRSGYGYYIDYWGQGTLVTVSS
VL: not shown
notes: HC variant paired with trastuzumab LC, cell-free expressed, HIS- and FLAG-tagged; also called Antibody 4
B7: SRP1848-A01 (antibody, V domains shown)
VH: EVQLVESGGGLVQPGGSLRLSCAASGFNITRYSIHWVRQAPGKGLEWVAGILPESGGTSYADSVKGRFTISADTSKNTAYLQMNSLRAEDTAVYYCARHIYPWDWFSNYVLDYWGQGTLVTVSS
VL: not shown
notes: HC variant paired with trastuzumab LC, cell-free expressed, HIS- and FLAG-tagged; also called Antibody 1

How the values were obtained:
[1] = biological target: T1, murine folate receptor alpha (mouse, UniProt P35846 25-232); assay: FACS, CHO-mFOLR1 cells;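 note: flow cytometry binding of serially diluted test antibodies to transfected CHO cells on ice, mean fluorescence intensity, parental CHO cells give background, Kd from one-site specific binding fit with Hill slope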
T1 construct: Expressed on the surface of stably transfected CHO cells; also called mouse FolR1; CHO-mouse FolR1
T1 sequence (P35846 25-232 limits assumed): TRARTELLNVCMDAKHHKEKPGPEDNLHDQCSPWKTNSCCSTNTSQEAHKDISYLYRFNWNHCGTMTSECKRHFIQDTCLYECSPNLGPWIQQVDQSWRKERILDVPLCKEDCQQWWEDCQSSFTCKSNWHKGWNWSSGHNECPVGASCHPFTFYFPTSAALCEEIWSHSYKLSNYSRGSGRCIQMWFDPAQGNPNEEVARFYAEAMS
Description: CHO cells were transfected to stably express human (CHO-hFOLR1), cynomolgus (CHO-cFOLR1), or mouse (CHO-mFOLR1) target molecule FOLR1 on the cell surface. Parental CHO cells were used as a negative control to determine background binding levels. Parental CHO and stably transfected CHO-hFOLR1, CHO-cFOLR1, and CHO-mFOLR1 cells were cultured in Ham's F-12: high glucose DMEM (50:50) (Corning, Cellgro-Mediatech) supplemented with 10% heat-inactivated fetal bovine serum (Corning, Cellgro-Mediatech), 1% Penicillin/Streptomycin (Corning, Cellgro-Mediatech) and 2 mmol/L-glutamax (Life Technology).
A mixture of fluoresecent-labeled parental CHO cells and unlabeled CHO-hFOLRlcells were prepared as follows. Parental CHO cells were washed twice in PBS and incubated in PBS containing with 1 nM CellTrace™ Oregon Green488® (Life Technologies) at 37° C. for 30 minutes. Labeled parental CHO cells were then washed 2× with Ham's F-12 media and 2× with FACS buffer (PBS with 1% bovine serum albumin). Unlabeled CHO-hFOLR1 cells were similarly washed and prepared. Labeled parental CHO and unlabeled CHO-hFOLR1 cells were combined at 1:1 ratio and seeded at 50 μL per well (200,000 cells per well) in 96 well polypropylene plates. Cells were mixed with 50 μL of test antibodies (i.e., anti-FOLR1 variants) serially diluted in FACS buffer and incubated on ice for 60 mins. […] Data were analyzed using FlowJo® software (FlowJo, LLC; Ashland, OR) to determine mean fluorescence intensities. Binding constants were calculated using the statistical software, GraphPad Prism (GraphPad Software; La Jolla, CA) using the nonlinear regression equation, one site-specific binding with Hill slope. Secondary antibody alone was used as a control, in addition to measuring non-specific antibody binding to CHO parental cells.

[2] = biological target: T2, human folate receptor alpha (hFOLR1) (human, UniProt P15328 25-234); assay: cell-based or functional assay
T2 sequence (P15328 25-234 limits assumed): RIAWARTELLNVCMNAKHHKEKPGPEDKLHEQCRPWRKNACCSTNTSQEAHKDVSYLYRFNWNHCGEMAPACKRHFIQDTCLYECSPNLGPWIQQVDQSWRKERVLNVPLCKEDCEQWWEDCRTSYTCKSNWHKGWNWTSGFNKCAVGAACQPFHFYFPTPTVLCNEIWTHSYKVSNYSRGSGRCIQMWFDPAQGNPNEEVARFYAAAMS

[3] = biological target: T3, cynomolgus monkey folate receptor alpha (cynomolgus monkey, UniProt P15328 25-234 (human entry)); assay: FACS, CHO-cFOLR1 cells
T3 construct: Expressed on the surface of stably transfected CHO cells; also called cyno FolR1; CHO-cyno FolR1
T3 sequence (P15328 other isoform, or with tags, fused parts or gaps limits assumed): as the sequence (P15328 25-234 limits assumed) above, with I2T, W4R, R37K, Q117R, A146P, H171Y counted along it

[4] = biological target: T2, human folate receptor alpha (hFOLR1); assay: FACS, CHO-hFOLR1 cells;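 note: flow cytometry of serially diluted antibodies binding CHO cells stably expressing the receptor, 60 min on ice, mixed with dye-tagged parental CHO as background control, one-site specific fit with Hill slope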

Binder	Bmax (MFI) [1] [MFI]	Kd [1] [nM]	Igrov, 2° Antibody Cell Killing, Nb-SC239: EC50 [2] [nM]	Igrov, 2° Antibody Cell Killing, Nb-SC239: Span [2] [%]	KB, 2° Antibody Cell Killing, Nb-239: EC50 [2] [nM]	KB, 2° Antibody Cell Killing, Nb-239: Span [2] [%]	Bmax (MFI) [3] [MFI]	Kd [3] [nM]	Bmax (MFI) [4] [MFI]	Kd [4] [nM]
B1	2740	11	0.015	73	0.096	93	26400	0.55	26900	0.73
B2	3890	2	0.015	64	0.052	92	23100	0.3	26800	0.43
B3	9650	0.9	0.029	68	0.062	95	23600	0.43	29200	0.61
B4	7990	1	0.026	71	–	93	20200	0.31	28900	0.61
B5	3200	2.5	0.013	65	0.039	93	26200	0.45	28600	0.62
B6	2770	2.4	–	72	0.046	93	20200	0.3	24500	0.47
B7	16500	0.8	0.015	71	0.064	94	22600	0.44	25900	0.39
